Test [1] has as its target T1, human CD39 (full length, on cells) (human, UniProt P49961 1-510).
T1 construct: Recombinant on CHOK1-hCD39 cells or natural on SK-MEL-28, SK-MEL-5 and MOLP-8 cells; the cell line is named under assay; also called hCD39; ENTPD1
T1 sequence: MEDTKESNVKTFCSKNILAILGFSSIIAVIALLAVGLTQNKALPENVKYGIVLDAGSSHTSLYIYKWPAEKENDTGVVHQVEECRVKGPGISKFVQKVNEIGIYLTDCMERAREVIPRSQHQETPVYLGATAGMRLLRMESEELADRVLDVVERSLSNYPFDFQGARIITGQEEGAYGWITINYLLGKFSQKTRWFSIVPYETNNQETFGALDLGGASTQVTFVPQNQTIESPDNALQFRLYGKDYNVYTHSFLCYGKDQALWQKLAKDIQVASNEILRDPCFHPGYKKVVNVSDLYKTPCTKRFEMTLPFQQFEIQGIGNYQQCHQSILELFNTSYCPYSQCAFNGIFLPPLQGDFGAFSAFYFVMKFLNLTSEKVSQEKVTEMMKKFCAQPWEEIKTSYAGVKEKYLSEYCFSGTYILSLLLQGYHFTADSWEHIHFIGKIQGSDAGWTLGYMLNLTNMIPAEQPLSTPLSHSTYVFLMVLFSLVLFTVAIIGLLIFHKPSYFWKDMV
Put plainly: FACS, SK-MEL-28 cells. In outline:
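SK-MEL-28 cells (natural human CD39) incubated with graded anti-CD39 antibody concentrations, 30 min at 4° C, washed, then stained with fluorescent anti-mouse or anti-human IgG secondary, 30 min at 4° C. Binding read by flow cytometry.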

The target in test [2] is T1, human CD39 (full length, on cells). Put plainly: cell-based or functional assay.
The target is the same in test [3]. Put plainly: FACS, CHOK1-hCD39 cells. The procedure, abridged: (§1)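 Cells incubated 60 min at 4 °C with anti-CD39 antibodies in 4-fold serial dilution from 30 μg/ml in PBS/1% FBS/0.05% Tween-20; CHOK1-blank cells as negative control. Binding read by flow cytometry as mean fluorescence intensity; apparent affinity fitted from full binding curves.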
Test [4] concerns the target T2, mouse CD39 (full length, on CHOK1-mCD39 cells) (mouse, UniProt P55772 1-510).
T2 construct: whole, on cells
T2 sequence (looked up): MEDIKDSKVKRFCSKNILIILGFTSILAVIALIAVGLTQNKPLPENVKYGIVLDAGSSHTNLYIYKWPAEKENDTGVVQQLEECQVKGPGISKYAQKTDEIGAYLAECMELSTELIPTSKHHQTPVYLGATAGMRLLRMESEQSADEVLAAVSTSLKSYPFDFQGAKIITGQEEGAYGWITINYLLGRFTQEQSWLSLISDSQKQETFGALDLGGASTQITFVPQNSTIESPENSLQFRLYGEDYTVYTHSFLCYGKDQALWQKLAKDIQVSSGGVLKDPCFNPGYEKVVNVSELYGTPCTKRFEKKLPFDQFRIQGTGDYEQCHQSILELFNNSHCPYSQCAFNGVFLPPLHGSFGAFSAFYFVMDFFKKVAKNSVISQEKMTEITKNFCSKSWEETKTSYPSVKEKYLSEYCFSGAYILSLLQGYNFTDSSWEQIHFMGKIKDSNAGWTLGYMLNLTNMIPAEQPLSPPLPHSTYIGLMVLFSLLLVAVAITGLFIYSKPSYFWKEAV
Put plainly: FACS, CHOK1-mCD39 cells. In outline:
as §1

Test [5] addresses T3, cynomolgus CD39 (full length, on CHOK1-cynoCD39 cells) (cynomolgus monkey, UniProt A0A7N9DGH8 1-510).
T3 construct: whole, on cells; also called cCD39
T3 sequence: T1 sequence with V47I, F94Y, V221I, I230T, I329V, K368N, A391S, F489V, T490I
The test can be described thus: FACS, CHOK1-cynoCD39 cells. In outline: as §1

Test [6] has as its target T1, human CD39 (full length, on cells). The test can be described thus: FACS competition on CHOK1-hCD39; competitor 9-8B-Alexa488. As to the method: (§2) Anti-CD39 antibodies were labeled using Alex488 labeling kit and were diluted in a series of concentrations, before mixing with CHOK1-hCD39 cells to test binding EC₅₀using FACS. The non-labeled antibodies were tested for their blocking efficacy to the labelled ones. Briefly, mononuclear CHOK1-hCD39 cells were prepared to 2×10⁶/ml and plated into 96 well at 50 μl/well, then mixed with antibodies gradients to final volume at 100 μl, and then equal volume of Alex488 label antibodies were added at two folds EC80 concentration. 96 well plates were incubated at 4° C. for 1 hour, and spun down and washed 3 times with 200 μl FACS buffer. The FACS analysis was performed on FACScelesta machine and data was analyzed by Flowjo software. The blocking percentages were calculated and those having above 80% competition rate were allocated into one epitope group, compared with the non-competing well (Alex488 labeled antibody only).
(§3) Based on the competition results, the 4 anti-CD39 hybridoma antibodies (mAb14, mAb19, mAb21, mAb23) can be grouped into 4 different epitope groups, as shown in Table 11.

Test [7] shares this target. The test can be described thus: FACS competition on CHOK1-hCD39; competitor mAb14-Alexa488. As to the method: as §2, §3
The target is the same in test [8]. Put plainly: FACS competition on CHOK1-hCD39; competitor mAb19-Alexa488. As for the experimental part: as §2, §3
Test [9] shares this target. The test can be described thus: FACS competition on CHOK1-hCD39; competitor mAb21-Alexa488. As for the experimental part: as §2, §3
For test [10] the target is unchanged. Put plainly: FACS competition on CHOK1-hCD39; competitor mAb23-Alexa488. As to the method: as §2, §3

Changes are numbered by the printed parent chain.

B1: mAb23 (antibody, V domains shown)
VH: EVQLQQSGAELLRPGASVKLSCTASGYNLKDTFLHWVKQRPEQGLEWIGRIDPANGNIKYDPKFQGKATLTADTSSNTAYLQLISLTSEDTAVYYCANSPYYYGSGYRIFDVWGAGTTVTVSS
VL: QIVLTQSPAIMSASPGEKVTITCSAFSSVNYMHWYQQKPGTSPKLLIYTTSNLASGVPTRFSGSGSGTSYSLTISRMEAEDAATYYCQQRSTYPFTFGSGTKLEIQ
notes: mouse hybridoma antibody
Turning to B1, the EC50 in test [1] worked out at 1.6 nM; in test [3], 1.7 nM; in [5], 2.3 nM. In addition, the “SK-MEL-28 cell based ATPase inhibition % at 10 nM” value in test [2] is 75%. For the same molecule, the binding result in [4] is “no binding (tested: 30 µg/ml highest concentration)”. The blocking percentage in [6] was 98%; in test [7] it was 86%; in test [8] it was 98%; in test [9], 93%; in test [10], 100%.

The values are drawn from patent US20210388105A1 (ELPISCIENCE SUZHOU BIOPHARMA, published 2021).
